B1: PR10.1-8E-M10 (structured_RNA)
RNA: GGCAGUGGAUCCAGUAGAUGCUCUUAAGUGUAACUUCUCAUAACAUCCGGAGGCUUUUACUUCCGGGGACCUAAGUGACGUCUGAACUGCUUCGAA
B2: PR10.1-8E-M8 (structured_RNA)
RNA: GGGUUACCUAGGUGUAGUGUGACUUAUCGUAAACUUCUCAUAACAUCCGGAGGCUUUUACUUCCGGGGACCUAAGUGACGUCUGAACUGCUUCGAA
B3: PR10.1-8E-D3CR (structured_RNA)
RNA: GGGUUACCUAGGUGUAGAUGCUCUUAAGUGUAACUUCUCAUAACAUCCGGAGGCUUUUACUUCCGGGG
B4: PR10.1-8E-M9 (structured_RNA)
RNA: GGGUUACCUAGGUGUAGAUGCUCUUAAGUGUAACUUCUCAUAACAUCCGGAGGCUUUUACUUCCGGGGUGGAUCCAUUGGUCUGAACUGCUUCGAA
B5: PR10.1-8E-M1 (structured_RNA)
RNA: GGGUUACCUAGGUGUAGAUGCUCUUAAGUGUAACUUCUCAUAACAUCCGGAGGCACGUACUUCCGGGGACCUAAGUGACGUCUGAACUGCUUCGAA
B6: PR10.1-8E-M5 (structured_RNA)
RNA: GGGUUACCUAGGUGUAGUACGACUUAAGUGUAACUUCUCAUAACAUCCGGAGGCUUUUACUUCCGGGGACCUAAGUGACGUCUGAACUGCUUCGAA
B7: PR10.1-8E-M6 (structured_RNA)
RNA: GGGUUACCUAGGUGUAGAUGCUCUUAUCACAAACUUCUCAUAACAUCCGGAGGCUUUUACUUCCGGGGACCUAAGUGACGUCUGAACUGCUUCGAA
B8: PR10.1-8E-M4 (structured_RNA)
RNA: GGGUUACCUAGGUGUAGAUGCUACGUAGUGUAACUUCUCAUAACAUCCGGAGGCUUUUACUUCCGGGGACCUAAGUGACGUCUGAACUGCUUCGAA
B9: PR10.1-8E-M2 (structured_RNA)
RNA: GGGUUACCUAGGUGUAGAUGCUCUUAAGUGUAACUUCUCAUAACAUCCGGAGGCUUUUAGAAGGCCCGACCUAAGUGACGUCUGAACUGCUUCGAA

Our source for the binding result and Kd values is PMC4345311.

As usually defined, the Kd is the constant that tells how readily two partners part at equilibrium. Lower therefore signals a tighter complex.

This data set concerns the target HIV-1 protease (PR), wild-type (HIV-1, UniProt P04585 489-587). The experiment in a line: filter binding.
As for B1, the binding result is on record as “no binding”.
As for B2, the Kd was found to be 386 ± 63 nM.
For B3, the binding result was “no binding”.
Still for that read-out and setting: with B4 the entry was “no binding”; with B5, “no binding”; with B6, “no binding”.
The same measure, in the same setting: the value for B7 was “no binding”.
Still for that read-out and setting: with B8 the entry was “no binding”; with B9, “no binding”.
